B1: Nitrogen regulatory protein (Escherichia coli (strain K12)), P69829 (parent)
chain: MTNNDTTLQLSSVLNRECTRSRVHCQSKKRALEIISELAAKQLSLPPQVVFEAILTREKMGSTGIGNGIAIPHGKLEEDTLRAVGVFVQLETPIAFDAIDNQPVDLLFALLVPADQTKTHLHTLSLVAKRLADKTICRRLRAAQSDEELYQIITDTEGTPDEA
partner: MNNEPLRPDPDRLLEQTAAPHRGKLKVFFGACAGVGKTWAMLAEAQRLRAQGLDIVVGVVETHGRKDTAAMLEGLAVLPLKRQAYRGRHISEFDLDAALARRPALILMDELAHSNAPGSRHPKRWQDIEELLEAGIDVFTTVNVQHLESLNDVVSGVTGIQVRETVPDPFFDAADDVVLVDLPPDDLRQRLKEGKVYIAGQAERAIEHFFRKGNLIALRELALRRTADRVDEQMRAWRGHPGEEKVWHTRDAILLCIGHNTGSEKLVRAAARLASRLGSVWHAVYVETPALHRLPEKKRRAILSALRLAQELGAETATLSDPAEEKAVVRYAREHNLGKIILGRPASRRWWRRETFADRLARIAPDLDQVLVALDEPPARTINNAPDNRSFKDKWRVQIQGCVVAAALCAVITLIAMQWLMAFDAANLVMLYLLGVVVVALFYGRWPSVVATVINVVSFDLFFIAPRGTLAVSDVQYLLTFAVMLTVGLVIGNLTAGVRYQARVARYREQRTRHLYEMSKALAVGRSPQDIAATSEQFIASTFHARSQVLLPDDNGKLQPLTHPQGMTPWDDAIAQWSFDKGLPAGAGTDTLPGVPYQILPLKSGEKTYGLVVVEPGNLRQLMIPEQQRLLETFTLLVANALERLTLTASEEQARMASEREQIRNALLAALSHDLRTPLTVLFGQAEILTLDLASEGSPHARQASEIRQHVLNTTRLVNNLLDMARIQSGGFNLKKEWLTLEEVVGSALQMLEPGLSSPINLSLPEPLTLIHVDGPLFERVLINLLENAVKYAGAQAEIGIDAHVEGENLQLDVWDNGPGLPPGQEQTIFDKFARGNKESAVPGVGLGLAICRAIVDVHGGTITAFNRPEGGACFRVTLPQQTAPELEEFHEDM

Variants of B1 are the subject of the experiment. As to conditions: with kdpd_ecoli kdpD.
Regarding MTNNDTTLQLSSVLNRECTRSRVHCQSKKRALEIISELAAKQLSLPPQVVFEAILTREKMGSTGIGNGIAIPAGKLEEDTLRAVGVFVQLETPIAFDAIDNQPVDLLFALLVPADQTKTHLHTLSLVAKRLADKTICRRLRAAQSDEELYQIITDTEGTPDEA [H73A], the “effect of a mutation on the interaction” value is recorded as “increasing interaction strength”.

Source of the values: IntAct's records for PubMed 19400808.
